In article PMC9131872 one finds stoichiometry N data, which are given here for 1 substance.

This test deals with African swine fever virus (ASFV) decapping enzyme g5R protein, recombinant wild type (residues 1 to 250) (African swine fever virus (ASFV)) (UniProt P32092). Description: cross-linking.

As to “African swine fever virus (ASFV) decapping enzyme g5R protein, recombinant wild type (residues 1 to 250) (from UniProt P32092 1-250)”, the stoichiometry N was 2.
